Assay [1] deals with human full-length FCHo1. The settings on record: pull-down assay; lower than the other longer fragments with more DPF motifs tested in the same reference; ref Umasankar et al.23; cited from earlier work. The source says: page 12: Supplementary Table 3 Regions of Eps15, Eps15R, and Dab2, involved in binding to the µHDs of SGIP1/ SGIP1α/FCHo1/FCHo2 from various sources. µHD-containing protein µHD-binding Region involved in binding Number of DPF motifs Method used to confirm binding Strength of Reference protein to the µHD in the binding region affinity mouse SGIP1 µHD (aa501–807) Eps15 a residues 594–896 15 b pull-down assay (competition) unknown Reider et al. 8 mouse SGIP1α µHD (aa561–854) rat Eps15 residues 593–894 15 pull-down assay unknown Uezu et al.19 mouse SGIP1α µHD (aa428–854) rat Eps15 residues 636–747 ...

Assay [2] has as its target T1, SGIP1 μ homology domain (residues 552 to 828) (human, UniProt Q9BQI5-1 552-828).
T1 construct: A SeMet-substituted form (E. coli B834(DE3)) was used only for the structure of the domain alone; also called SGIP1 μHD; μHD; source: E. coli BL21-Gold (DE3) or Rosetta2, purified (Glutathione Sepharose, 3C protease cleavage on the column, Superdex 200)
T1 sequence (looked up): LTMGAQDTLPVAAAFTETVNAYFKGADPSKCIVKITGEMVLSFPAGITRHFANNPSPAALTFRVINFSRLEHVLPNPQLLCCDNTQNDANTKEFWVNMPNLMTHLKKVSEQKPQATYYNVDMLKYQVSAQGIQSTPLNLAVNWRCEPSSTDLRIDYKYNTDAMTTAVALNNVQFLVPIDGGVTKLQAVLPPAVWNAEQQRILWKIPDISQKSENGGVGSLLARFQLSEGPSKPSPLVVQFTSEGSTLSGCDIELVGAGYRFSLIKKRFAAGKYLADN
Kind of assay: ITC; VP-ITC, 25 °C, 50 mM Tris-HCl pH 8.0, 50 mM NaCl; for the majority the μHD (SGIP1, its mutants or FCHo1) in the cell, titrated with Eps15 fragments or peptides, for others the reverse (Supplementary Table 2); repeated twice, global fit with SEDPHAT, single-site or two-site model. The conditions noted are these: both partners purified.

In assay [3] the target is T2, FCHo1 μ homology domain (residues 623 to 889) (human, UniProt O14526-1 623-889).
T2 construct: FCHo1 (FCH domain only 1), human, μ homology domain, residues 623-889; also called FCHo1 μHD; source: E. coli, purified in the same manner as for the SGIP1 μHD
T2 sequence (looked up): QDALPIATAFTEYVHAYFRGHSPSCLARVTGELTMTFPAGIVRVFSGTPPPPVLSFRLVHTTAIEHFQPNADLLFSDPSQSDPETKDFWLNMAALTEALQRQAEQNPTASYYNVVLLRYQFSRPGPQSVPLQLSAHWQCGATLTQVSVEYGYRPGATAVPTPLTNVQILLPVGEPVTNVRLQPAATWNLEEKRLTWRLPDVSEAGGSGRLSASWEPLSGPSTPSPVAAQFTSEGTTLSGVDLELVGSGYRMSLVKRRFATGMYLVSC
Described as above. The settings on record: both partners purified.

In the case of “Eps15 residues 595–636: Eps15 region of a previous report, first DPF motifs of the high-affinity site, source assumed human (SKEEDPFNVDSSSLTGPVADTNLDFFQSDPFVGSDPFKDDPF; UniProt P42566 595-636, looked up, fragment)”, the Strength of affinity result in assay [1] is on record as “low”.

B1: Eps15-618–654 (domain or fragment, human, UniProt P42566-1 618-654, looked up)
chain: DFFQSDPFVGSDPFKDDPFGKIDPFGGDPFKGSDPFA
notes: also called 37-residue region containing six consecutive DPF motifs; source: E. coli, purified in the same manner as for the SGIP1 μHD
Take B1: the “Kd of the high-affinity site (two-site model)” value in assay [2] is around 65 nM. For the same molecule, in assay [3], the binding result is listed as “binds”.
